B1: Catenin delta-1 (Homo sapiens), O60716-29 (parent)
chain: MIGEEVPSDQYYWAPLAQHERGSLASLDSLRKGGPPPPNWRQPELPEVIAMLGFRLDAVKSNAAAYLQHLCYRNDKVKTDVRKLKGIPVLVGLLDHPKKEVHLGACGALKNISFGRDQDNKIAIKNCDGVPALVRLLRKARDMDLTEVITGTLWNLSSHDSIKMEIVDHALHALTDEVIIPHSGWEREPNEDCKPRHIEWESVLTNTAGCLRNVSSERSEARRKLRECDGLVDALIFIVQAEIGQKDSDSKLVENCVCLLRNLSYQVHREIPQAERYQEAAPNVANNTGPHAASCFGAKKGKGKKPIEDPANDTVDFPKRTSPARGYELLFQPEVVRIYISLLKESKTPAILEASAGAIQNLCAGRWTYGRYIRSALRQEKALSAIADLLTNEHERVVKAASGALRNLAVDARNKELIGKHAIPNLVKNLPGGQQNSSWNFSEDTVISILNTINEVIAENLEAAKKLRETQGIEKLVLINKSGNRSEKEVRAAALVLQTIWGYKELRKPLEKEGWKKSDFQVNLNNASRSQSSHSYDDSTLPLIDRNQKSDKKPDREEIQMSNMGSNTKSLDNNYSTPNERGDHNRTLDRSGDLGDMEPLKGTTPLMQKI
B2: Catenin delta-1 (Homo sapiens), O60716-5 (parent)
chain: MDDSEVESTASILASVKEQEAQFEKLTRALEEERRHVSAQLERVRVSPQDANPLMANGTLTRRHQNGRFVGDADLERQKFSDLKLNGPQDHSHLLYSTIPRMQEPGQIVETYTEEDPEGAMSVVSVETSDDGTTRRTETTVKKVVKTVTTRTVQPVAMGPDGLPVDASSVSNNYIQTLGRDFRKNGNGGPGPYVGQAGTATLPRNFHYPPDGYSRHYEDGYPGGSDNYGSLSRVTRIEERYRPSMEGYRAPSRQDVYGPQPQVRVGGSSVDLHRFHPEPYGLEDDQRSMGYDDLDYGMMSDYGTARRTGTPSDPRRRLRSYEDMIGEEVPSDQYYWAPLAQHERGSLASLDSLRKGGPPPPNWRQPELPEVIAMLGFRLDAVKSNAAAYLQHLCYRNDKVKTDVRKLKGIPVLVGLLDHPKKEVHLGACGALKNISFGRDQDNKIAIKNCDGVPALVRLLRKARDMDLTEVITGTLWNLSSHDSIKMEIVDHALHALTDEVIIPHSGWEREPNEDCKPRHIEWESVLTNTAGCLRNVSSERSEARRKLRECDGLVDALIFIVQAEIGQKDSDSKLVENCVCLLRNLSYQVHREIPQAERYQEAAPNVANNTGPHAASCFGAKKGKGKKPIEDPANDTVDFPKRTSPARGYELLFQPEVVRIYISLLKESKTPAILEASAGAIQNLCAGRWTYGRYIRSALRQEKALSAIADLLTNEHERVVKAASGALRNLAVDARNKELIGKHAIPNLVKNLPGGQQNSSWNFSEDTVISILNTINEVIAENLEAAKKLRETQGIEKLVLINKSGNRSEKEVRAAALVLQTIWGYKELRKPLEKEGWKKSDFQVNLNNASRSQSSHSYDDSTLPLIDRNQKSDKKPDREEIQMSNMGSNTKSLDNNYSTPNERGDHNRTLDRSGDLGDMEPLKGTTPLMQKI

Variants of: B1
Conditions: with cadh1_mouse Cdh1, P09803
Sequence of cadh1_mouse Cdh1, P09803 (P09803 whole entry): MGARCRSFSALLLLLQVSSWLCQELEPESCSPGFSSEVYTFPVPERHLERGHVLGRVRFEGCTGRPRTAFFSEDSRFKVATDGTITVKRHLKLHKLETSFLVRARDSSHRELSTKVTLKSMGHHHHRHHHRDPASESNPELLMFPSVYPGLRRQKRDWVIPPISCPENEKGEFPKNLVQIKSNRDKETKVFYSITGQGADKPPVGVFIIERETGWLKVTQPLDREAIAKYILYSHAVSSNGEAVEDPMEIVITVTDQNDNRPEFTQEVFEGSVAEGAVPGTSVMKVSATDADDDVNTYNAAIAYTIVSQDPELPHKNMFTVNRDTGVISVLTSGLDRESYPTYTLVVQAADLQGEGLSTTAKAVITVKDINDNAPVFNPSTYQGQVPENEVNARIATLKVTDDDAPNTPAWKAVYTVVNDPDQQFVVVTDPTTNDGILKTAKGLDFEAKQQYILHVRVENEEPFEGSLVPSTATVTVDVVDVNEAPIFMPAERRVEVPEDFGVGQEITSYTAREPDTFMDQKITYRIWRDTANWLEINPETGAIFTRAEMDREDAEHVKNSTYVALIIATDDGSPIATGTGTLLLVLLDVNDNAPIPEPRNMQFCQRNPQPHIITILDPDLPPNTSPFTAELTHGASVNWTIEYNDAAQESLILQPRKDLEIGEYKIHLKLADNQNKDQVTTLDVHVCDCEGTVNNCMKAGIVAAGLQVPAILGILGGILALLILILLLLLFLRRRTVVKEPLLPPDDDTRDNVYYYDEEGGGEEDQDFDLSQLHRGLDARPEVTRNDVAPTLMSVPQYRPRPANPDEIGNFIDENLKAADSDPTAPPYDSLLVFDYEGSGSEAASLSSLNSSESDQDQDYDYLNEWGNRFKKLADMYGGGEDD

| Variant | effect of a mutation on the interaction |
| --- | --- |
| K78M | disrupting interaction |
| K121M | disrupting interaction |
| W154A | decreasing interaction |
| N155A | disrupting interaction |

Variants of: B2
Conditions: with cadh1_human CDH1, P12830
Sequence of cadh1_human CDH1, P12830 (P12830 whole entry): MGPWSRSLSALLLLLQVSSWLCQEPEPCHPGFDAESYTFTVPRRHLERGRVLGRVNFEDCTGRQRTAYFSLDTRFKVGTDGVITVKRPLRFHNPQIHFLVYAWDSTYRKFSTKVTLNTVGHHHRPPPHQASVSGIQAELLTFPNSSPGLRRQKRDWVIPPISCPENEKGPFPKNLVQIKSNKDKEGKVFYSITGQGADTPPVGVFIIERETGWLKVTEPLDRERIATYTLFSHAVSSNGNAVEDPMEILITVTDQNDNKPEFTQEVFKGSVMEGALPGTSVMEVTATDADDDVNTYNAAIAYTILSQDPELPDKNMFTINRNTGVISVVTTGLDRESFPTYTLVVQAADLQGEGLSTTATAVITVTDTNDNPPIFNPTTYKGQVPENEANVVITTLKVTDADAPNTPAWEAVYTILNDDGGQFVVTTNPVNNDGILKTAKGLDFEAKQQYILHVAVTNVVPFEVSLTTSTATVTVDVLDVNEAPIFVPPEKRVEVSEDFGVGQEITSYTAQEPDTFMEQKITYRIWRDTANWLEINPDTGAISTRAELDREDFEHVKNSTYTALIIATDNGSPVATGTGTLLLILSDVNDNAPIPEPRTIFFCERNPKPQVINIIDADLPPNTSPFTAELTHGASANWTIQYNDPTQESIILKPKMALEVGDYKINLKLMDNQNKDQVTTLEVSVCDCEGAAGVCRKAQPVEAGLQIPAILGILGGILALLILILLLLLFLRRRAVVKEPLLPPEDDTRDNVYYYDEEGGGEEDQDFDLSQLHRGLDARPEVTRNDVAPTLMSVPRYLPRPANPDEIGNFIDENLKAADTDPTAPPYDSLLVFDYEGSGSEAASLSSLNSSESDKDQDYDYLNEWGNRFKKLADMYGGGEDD

| Variant | effect of a mutation on the interaction |
| --- | --- |
| K401M | decreasing interaction |
| N478A | decreasing interaction |

From IntAct's records for PubMed 20371349
